Where no end group is shown, it is not given here. [ ]: non-standard residue; d: D form.

We go through 2 molecules from patent US12527835B2, “Brevican-binding peptides for brain tumor imaging” (The Brigham and Women's Hospital, Inc., priority 2018, dated 2026).

Data set [1] deals with HEK-Bcan cells. Nature of the data set: Flow cytometry blocking study with 50× molar excess of unlabeled peptide. Type of data set: cell-based, human. The following applies: fluorescein-conjugated peptide 1 μM. On the procedure:
(§1) Cells were washed once with PBS and then, treated with 1 mL of 2.5 mM EDTA to dissociate the cells. The EDTA was removed by centrifugation, and PBS supplemented with 10% FBS was added to create a single-cell suspension. All peptide stocks were dissolved in DMSO, and stored at −20° C. in the dark. Cells were incubated with each peptide (at the desired final concentration, between 1-10 μM) for 3 hrs at 37° C. in the dark under constant rotation. After incubation, cells were washed 3× with PBS with 10% FBS (by centrifugation at 7000 rpm for 3 mins each). Then, cells were resuspended in 3.7% formaldehyde for fixation, and finally washed once with PBS. Cells were evaluated for peptide uptake (mean fluorescence intensity) by flow cytometry (10,000-20,000 events).
For blocking studies, cells were dissociated as described above and resuspended in cold PBS with 10% FBS. Cells were then incubated with a 50× molar excess of unlabeled peptide for 10 mins on ice, before adding the corresponding FITC-labeled peptide at a final concentration of 1 μM and incubated for 1.5 hrs on ice. Cells were then washed with cold PBS with 10% FBS, fixed and analyzed by flow cytometry.
A general note: A flow cytometer gives signals particle by particle.

Data set [2] relates to BT188 glioma stem cells. Nature of the data set: Peptide uptake in BT188 (BΔg-high) versus BT145 (BΔg-low) glioma stem cells, fluorescence imaging. Type of data set: cell-based, human. The settings on record: fluorescein-labeled peptides, 5 μM. The text has this: FIGS. 3A-I. Peptide characterization for BΔg specificity in glioma stem cells. (a) Table summary listing the properties of 7 peptides (composed of 8 D-amino acid residues, SEQ ID NOs:3-9, in order of appearance) that were isolated from the OBOC library screen. MW=molecular weight; KD=Kyte-Doolittle scale for amino acid hydropathy (positive scores indicate […]) (Kyte and Doolittle, J. Mol. Biol. 157, 105-132 (1982)). (b) Chemical structure showing the linkage between the peptide and FITC. (c) Western blot analysis showing the level of BΔg and Bcan in human embryo kidney (HEK) cells, and Bcan-overexpressing HEK cells (HEK-Bcan). […] Each group was normalized to a no-blocking (vehicle) control. Statistics were performed using multiple t-tests, and significance was measured in comparison to each vehicle control (p<0.0001). (e) Uptake of fluorescein-labeled BTP-2, 7, 8, 9, and 10 (at 5 μM conc.) in BT188 (BΔg-high) or BT145 (BΔg-low) glioma stem cells (GSCs). Western blot analysis on the top right confirms the BΔg expression level. […] Statistics were performed using the two-way ANOVA and Tukey's Multiple Comparison test. (f) Chemical structure showing the linkage between the peptide and Cy5.5 dye. (g) Western blot analysis showing the expression of BΔg in GBM-6 cells, with negligible BΔg level in astrocytes or neural progenitor cells (NPC). (h) Graph showing the cell uptake ranking of the top 3 peptide candidates, BTP-7, 8 and 9 in GBM-6 cells as determined by flow cytometry analysis with s.d. error bars (5 μM conc.; nevents=20,000 cells; nexperiment=5). Each group is normalized to the control scramble peptide (Scr-8). Statistics were performed using the one-way ANOVA and Tukey's Multiple Comparison test (significance were measured in comparison to the Scr-8 control). (i) Bar graph showing the uptake of BTP-7, 8 and 9 in GBM-6 cells and NPC with 95% confidence interval error bars (1 μM conc.; nevents=20,000 cells). Statistics were performed using the two-way ANOVA and Sidak's Multiple Comparison test.

Data set [3] is described as follows: Solubility in aqueous solutions.
Data set [4] has as its system intracranial GBM-6 tumor. Kind of data set: Intracranial GBM-6 tumor uptake analysis in nude mice. The class given is in vivo, mouse. The settings on record: i.v. tail vein, 100 μL of 500 μM. On the procedure: For intracranial tumor implantation, animals were injected with 100,000 GBM-6 cells in the right frontal lobe of the mouse brain. Briefly, nude mice (6-8 weeks) were anaesthetized by i.p. injection with ketamine/xylazine/acepromazine mixed in 0.9% NaCl saline solution. Then, the mice heads were mounted onto a stereotactic frame, and sterilized by swabbing with iodine solution. An 8-10 mm sagittal incision was made with a scalpel, and the bregma of the skull was identified. A Hamilton syringe containing GBM-6 cells (in PBS; 3 μL volume) was inserted into the coronal suture of the skull at the following coordinates from the bregma: 2 mm right and 0.5 mm forward. The tip of the needle was lowered/implanted into the brain (3.5 mm distance). GBM-6 cells were injected slowly (0.1 μL per 10 seconds). After that, the needle was retracted, and the skin around the incision was sutured back together. Mice were allowed to recover after surgery (meloxicam were given as analgesia post-surgery). […] After 8 hrs, mice were sacrificed and their brains excised, cryosectioned, stained with Hoechst dye and imaged by fluorescence microscopy. […] The mean Cy5.5 fluorescence intensity of the tumor was performed on ImageJ and compared with the mean fluorescence intensity on the non-tumor area on the contralateral (left) side of the brain.

The conditions of data set [5]: healthy mice, 4 hours post-intravenous administration, IVIS. Here is the method:
The lyophilized BTP-7-Cy5.5 powders were dissolved to a final concentration of 10 mM in DMSO by mass. The peptide was then diluted to a concentration of 100 μM in a solution of 50:50 polyethylene glycol (PEG)-300:0.9% sodium chloride (v/v) irrigation solution. A 100 μL dose of each peptide solution was administered intravenously via the tail vein into healthy 8-week old female nude mice. After 4 hours, 100 μL of 50 mg/mL tetramethylrhodamine isothiocyanate-labeled dextran (155 kDa) in 0.9% sodium chloride was injected via the tail vein. Mice were sacrificed 30 min later by cervical dislocation. The brain, heart, lungs, kidneys, spleen, and liver were excised from each mouse, frozen on dry ice and imaged using an In Vivo Imaging System (Perkin Elmer) at an excitation of 640 nm. Using Living Image software, regions of interest were drawn around each organ and the total radiant efficiency of Cy5.5 from each organ was quantified.

Data set [6] concerns HEK-Bcan cells. Nature of the data set: Flow cytometry cell uptake, HEK-Bcan versus regular HEK cells. Type of data set: cell-based, human. The following applies: Cy5.5-conjugated peptides, 5 μM. Here is the method: as §1
The subject of data set [7] is GBM-6 cells. Nature of the data set: Flow cytometry cell uptake in GBM-6 cells. The class given is cell-based, human. On the procedure: as §1
Data set [8] can be described thus: In vivo analysis of BBB permeability in non-tumor bearing mice. Also noted: species or system mouse. The following applies: i.v., 100 μL of 100 μM, 4 hrs. Here is the method: To measure BBB penetration, naïve nude mice were injected intravenously via the tail vein with either Cy5.5-labeled BTP-7 or a scramble (Cy5.5-Scr-7) peptide (100 μL of 100 μM peptide solution). 4 hrs later, mice were injected with 100 μL of 50 mg/mL TRITC-dextran (155 kDa) via the tail vein. Mice were euthanized after 30 mins, and their brains excised, frozen and cryo-sectioned into 16 μm slices. Tissue sections from the frontal lobe were imaged by confocal microscopy using a 20× objective. Areas with high TRITC (red in original) signal indicate regions of high perfusion (i.e. blood vessels). Cy5.5 (peptide) intensity was measured in areas outside of visible TRITC signal to ensure that only peptide intensity in the brain parenchyma (peptide that has successfully extravasated from the vessels and accumulated in the brain tissues) was quantified.

On to “BTP-2: BΔg-targeting peptide of 8 D-amino acid residues from OBOC screen; sequence only in FIG. 3A ([dW][dR][dK][dA][dF][dT]G[dY]; not fully specified)”, for which the “uptake in HEK-Bcan cells in the presence of the blocking peptide” value in data set [1] is on record as “reduced uptake”. Further, the “uptake in BT188 GSCs compared with BT145 GSCs” value in data set [2] is “greater uptake”. Besides, in data set [3], the “solubility in aqueous solutions compared to the other peptides” value was “more insoluble in aqueous solutions”.

On to `CC(C)[C@@H](NC(=O)[C@@H](Cc1c[nH]cn1)NC(=O)CNC(=O)[C@@H](Cc1c[nH]c2ccccc12)NC(=O)[C@@H](CCCCN)NC(=O)[C@H](N)[C@H](C)O)C(=O)N[C@H](CC(N)=O)C(=O)N[C@H](CCCCN)C(=O)NCCCCCC(=O)N[C@@H](Cc1cn(CCCNC(=O)CCCCC[N+]2=C(/C=C/C=C/C=C3/N(C)c4ccc5ccccc5c4C3(C)C)C(C)(C)c3c2ccc2ccccc32)nn1)C(N)=O` [BTP-7-Cy5.5], for which the “tumor uptake compared to the control Cy5.5 dye (without peptide)” value in data set [4] (brain cryo-sections, mean Cy5.5 intensity in tumor) was “more than 10 times”. In data set [4] (tumor-to-non-tumor ratio), the “fluorescence intensity of tumor compared to the contralateral area” value was 4 times. In data set [5], the “fluorescence intensity in liver and kidneys” value is “highest fluorescence intensity”; the “uptake in brain and heart compared to other organs” value is “relatively low uptake”. Besides, the “uptake in HEK-Bcan cells compared with regular HEK cells” value in data set [6] was “significantly higher”. In addition, the “uptake in GBM-6 GSCs compared with astrocytes” value in data set [7] (Cy5.5-conjugated peptides) is “significantly higher”. Further, in data set [7] (Cy5.5-conjugated peptides, 5 μM, inhibition of endocytosis), the “uptake in GBM-6 cells at 4° C. compared to 37° C.” value is recorded as “significantly reduced”. In data set [7] (Cy5.5-labeled, 5 μM, normalized to Scr-8), the “cell uptake ranking in GBM-6 cells” value was “highest uptake”. In data set [8] (healthy non-tumor bearing mice, confocal microscopy), the “accumulation in the brain parenchyma outside of regions of high perfusion” value is listed as “accumulated within the brain parenchyma”. Also, in data set [8] (mean Cy5.5 intensity in parenchyma), the “level of extravasation across the BBB compared with Scr-7” value is recorded as “higher that of Scr-7”.
